Data taken from publication PMC11153517.

Key:
[1] = target: human tumor necrosis factor (TNF)-α (human) (UniProt P01375)
[2] = target: human tumor necrosis factor (TNF)-α (human) (UniProt P01375); remark: listed apart in the source

Sequence of UniProt P01375 (P01375 whole entry): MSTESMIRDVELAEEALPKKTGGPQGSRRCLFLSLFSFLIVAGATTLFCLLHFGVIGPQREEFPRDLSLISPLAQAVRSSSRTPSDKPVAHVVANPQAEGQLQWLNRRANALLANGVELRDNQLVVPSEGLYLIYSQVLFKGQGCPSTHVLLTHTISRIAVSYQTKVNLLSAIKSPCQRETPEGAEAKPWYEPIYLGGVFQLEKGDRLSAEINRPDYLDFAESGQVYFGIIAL

B1: peptide … (peptide)
peptide: PIYLGGVFQ
[1]
  inhibition of TNFα-induced NFκB (p65) nuclear translocation in A549 cells, Western blot of nuclear extract; peptide 50, 100 and 200 μM (49%, 56% and 65%): 65 % inhibition
[2]
  apoptosis of Wehi-164 cells with TNFα (100 ng/ml) and actinomycin D, MTT assay, 20 h; peptide 50, 100 and 200 μM premixed with TNFα; 70% cell death with TNFα and AcD without the peptide: 26.4 % apoptosis
